The target in the series is T1, His-RosE (Salmonella enterica serotype Typhimurium) (UniProt Q8ZK37).
T1 sequence: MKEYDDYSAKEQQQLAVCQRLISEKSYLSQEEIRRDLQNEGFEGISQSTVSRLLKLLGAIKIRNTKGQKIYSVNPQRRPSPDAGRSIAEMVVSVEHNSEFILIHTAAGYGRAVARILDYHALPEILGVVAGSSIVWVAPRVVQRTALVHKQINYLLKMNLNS
Nature of the series: EMSA. (In general: Mobility shift assays separate free from complexed probe on a gel.)

“TAAAAAGTATTTCTTTGATGATTATTCTTAAATTACGATCATAATCATCGATCGTATCGATCTATTTTTATTGTTTTAATTTGAATAAGAATTTTCTTACAACTGATTAGGCATTAGCTGAAATCAATATTTTTCGATGGAAAGTTCAGG (double strand) [stdA upstream region 1]”: the binding result is reported as “no binding”.

For the origin of these results see paper PMC2328253.
